According to patent publication US11066655B2, “RNA polymerase, methods of purification and methods of use” (President and Fellows of Harvard College, priority 2013, dated 2021):

What was measured:
Type in all cases: biochemical
[1] = tested on: plasmid pET24-S5 RNAP; assay: Incorporation of AMP by RNA polymerases from the improved purification
Experimental: FIGS. 8A-8B depict RNA polymerases described further herein. A) SDS-PAGE gel of Syn5 RNA polymerase purified as previously reported (S50, 18), newly purified Syn5 RNA polymerase using Ni-NTA chromatography in the presence of 2 M NaCl (S5N1), newly purified Syn5 RNA polymerase purified using Ni-NTA and gel filtration chromatography in the presence of 2 M NaCl (S5N2), and T7 RNA polymerase. B) Incorporation of AMP at RT by 50 nM RNA polymerases shown in A). A plasmid with both a Syn5 and T7 promoter was used as template for transcription.
Reactions for FIG. 8B contained 40 mM Tris-HCl pH 8.0, 2 mM spermidine, 10 mM DTT, 200 µM[…] GTP, C[…]P, UTP and ^3H-ATP (20 cpm/pmole), 1.5 U/µl RNaseOUT™, 50 nM Syn5 or T7 RNAP and 4 nM plasmid pET24-S5 RNAP. Reaction mixtures were incubated at room temperature (RT, ˜24° C.). After various times the reactions were stopped by the addition of 20 mM EDTA. 4 µl of the mixtures were then loaded onto Whatman DE81 filter paper disks and the disks were washed to remove the unincorporated ^3H-ATP. The amount of insoluble ^3H-AMP, corresponding to nucleotides incorporated into newly synthesized RNA, was measured using a scintillation counter. The data were analyzed using Prism software.

[2] = tested on: dsDNA template (1, 2 or 3); assay: Incorporation of 2′-F-dNTP into RNA by wild-type Syn5 RNA polymerase (Mg buffer)
Excerpt: FIG. 24 depicts gels showing incorporation of 2′-F-dNTP into RNA using WT Syn5 RNA polymerase.
According to certain aspects of the invention, wild-type Syn5 RNA polymerase was used in methods described herein for high yield 2′-F RNA synthesis, with DNA templates that allow incorporation of fewer than three 2′-F-dNTP into the first 12 nt of a full-length transcript and in a non-consecutive manner. Transcription initiation (synthesis of 2-12 nt RNA) can be the most unstable stage for an RNA polymerase. Once transcripts are extended over 12 nt, transcription elongation is robust and stable. To determine whether the incorporation of 2′-F-dNTP during the transcription initiation stage is a rate-limiting step of Syn5 RNA polymerase, Syn5 RNA polymerase transcription in the presence of 2′-F-dNTPs on DNA templates that allow various amounts of 2′-F-dNTP incorporation into the first 12 nt of the RNA products was compared. The following conditions were used.
The reaction components were incubated at 37° C. for 4 hrs. Then 0.4 µl of the reaction mixture were loaded onto 10% TBE gel and stained with ethidium bromide. […] See FIG. 1. lane 1 vs 2; 8 vs 7; 15 vs 14. […] Template 1 has also 3Gs but two of them are consecutive. […] See FIG. 1. lane 10 vs 7; lane 17 vs 14). […] Although there are only 2 Cs in the 1-12 nt region of template 1, two consecutive incorporations during the initiation stage prevented the efficient synthesis of RNA products containing 2′-F-dCMP. With template 3 starting with C, 2′-F-dCTP was still efficiently incorporated.

[3] = tested on: template for a 37 nt RNA or a 2.7 knt RNA; assay: 2′-F-dNTP incorporation with mixed cofactor Mg2+/Mn2+; conditions: mixed cofactors Mg2+/Mn2+
Excerpt: FIG. 25A depicts a gel showing that WT Syn5 polymerase incorporates 2′-F-C/UTP and all four 2′-F′dNTP in the presence of mixed cofactor Mg^2+/Mn^2+.
FIG. 25B depicts a gel comparing 2′-F′dNTP incorporation using Mg^2+ versus the mixed cofactor.
According to certain aspects of the invention, co-factors such as Mg^+2 and Mn^+2 are used to reduce discrimination against 2′-F-dNTP of wild-type Syn5 RNA polymerase. The optimum cofactor concentration of Mg^2+ or Mn^2+ is similar for Syn5 RNA polymerase, and Mg^2+ and Mn^2+ are provided as mixed cofactors for the Syn5 RNA polymerase. Without wishing to be bound by scientific theory, a substantial proportion of Syn5 RNA polymerase in the reaction may utilize one Mg^2+ and one Mn^2+ in their active sites for catalysis (based on the two-metal-ion mechanism for polymerase catalysis) so that both high overall yield and low discrimination against 2′-F-dNTP can be achieved with the methods described herein.
The reaction components were incubated at 37° C. for 4 hrs. 0.4 µl of the reaction mixture were loaded onto 10% TBE gel or 2% agarose gel and stained with ethidium bromide. […] See FIG. 25A lane 5 vs lane 1; FIG. 25B lane 3 vs lane 1). […]

B1: Syn5 RNAP: single subunit DNA-dependent RNA polymerase from marine cyanophage Syn5, amino acid sequence SEQ ID NO:23 (protein)
chain: MSFDLIARQLQRETEAAELARKRLQDARREANERSYASSNIESRKAIATFLDPIAQRIGERLFTLRRGTGAVDAAEVYKHLKNADHHHLALITMKTALDVLGKDPEPQIQQLTTAIGRNIQLELRLTYYAEENPELYKQASRFFHAGTGTRQKATVIKLKFNREGIEWDQWSRVTCHKVGQWLMLAMADVTGWIERATDRTSGGRKTKTRICYSREFLQHRDTILAAAEQLAFCQWPMLCPPIEWSNDHNGGYLSEQIRRVNPLIRKTGPLGTRKQGDIPLAMLNNLQGQAYKVNPEVLDIANHCYESNVTVGKFIRHAPLPVPPSPGEDCTEDQLTAYKRARREAEDFNAQISQKNWRTTEVMYVARKYADEASFWMPASFDYRGRVYFLNTALNPQGTDFDKALLYFAEEGPVNEWWLSFHVATTYGLDKETMVNRVQWARDNHELIDRIASDPVRHTEWHDADEPWCFLAACLEYKACVIDGTKQTSGLPIGIDATCSGLQHLAAMTRCGRTAALVNVTPTDKPADAYKTVAQASLKHLPKEQHEWITRKVTKRPVMCTPYGVTMSSARGYIRDQLVKDGHKEDLRSPGVLNGIVKAIFNEAIPEVIPGPVQVMAWLKRSAGQIIDRGDSTITWTTPSGFEVVQDLKKSKTYEVKTRIMGGARIKLQVGDGFTDEPDRDHHKSALAPNVVHSNDASLLHLTFAFWDKPFTVIHDCVLGRSCDMDQMGSDIRLHFAEMYKADVMQDWADQVGVELPVDLIKNTLDIDSVNQSLYFFS
modifications: Amino acid sequence of a cyanophage Syn5 RNAP
- activity of enzyme purified by Ni-NTA and gel filtration ([1]; 50 nM RNAP, RT): close to that of T7 RNAP
- increase of specific activity by improved purification (2 M NaCl) ([1]; versus previous three-step purification): 2 fold
- full-length products containing 2′-F-dUMP ([2]; template 1 and 3): low yield
- incorporation of 2′-F-dUTP ([2]; template 2): efficient incorporation
- incorporation of 2′-F-dCTP ([2]; template 2 and 3): incorporated very well
- full-length transcript with ATP replaced by 2′-F-dATP ([2]; templates 1, 2, 3): none of them produces full-length transcript
- discrimination against 2′-F-dCTP ([2]; transcription elongation): no intrinsic discrimination against 2′-F-dCTP
- RNA with all four 2′-F-dNMPs [3]: substantial yield
- yield of 2′-F-dCMP/2′-F-dUMP incorporated RNA [3]: better yield
